How the values were obtained:
Assay in all cases: cell-based or functional assay
[1] = target: T1, human MCSP (Melanoma-associated Chondroitin Sulfate Proteoglycan) on cells (human, UniProt Q6UVK1 30-2322)
[2] = target: T1, human MCSP (Melanoma-associated …); remark: listed apart in the source
[3] = target: T2, human CEA (Carcinoembryonic antigen) on cells (human, UniProt P06731 35-685)
T2 sequence (looked up): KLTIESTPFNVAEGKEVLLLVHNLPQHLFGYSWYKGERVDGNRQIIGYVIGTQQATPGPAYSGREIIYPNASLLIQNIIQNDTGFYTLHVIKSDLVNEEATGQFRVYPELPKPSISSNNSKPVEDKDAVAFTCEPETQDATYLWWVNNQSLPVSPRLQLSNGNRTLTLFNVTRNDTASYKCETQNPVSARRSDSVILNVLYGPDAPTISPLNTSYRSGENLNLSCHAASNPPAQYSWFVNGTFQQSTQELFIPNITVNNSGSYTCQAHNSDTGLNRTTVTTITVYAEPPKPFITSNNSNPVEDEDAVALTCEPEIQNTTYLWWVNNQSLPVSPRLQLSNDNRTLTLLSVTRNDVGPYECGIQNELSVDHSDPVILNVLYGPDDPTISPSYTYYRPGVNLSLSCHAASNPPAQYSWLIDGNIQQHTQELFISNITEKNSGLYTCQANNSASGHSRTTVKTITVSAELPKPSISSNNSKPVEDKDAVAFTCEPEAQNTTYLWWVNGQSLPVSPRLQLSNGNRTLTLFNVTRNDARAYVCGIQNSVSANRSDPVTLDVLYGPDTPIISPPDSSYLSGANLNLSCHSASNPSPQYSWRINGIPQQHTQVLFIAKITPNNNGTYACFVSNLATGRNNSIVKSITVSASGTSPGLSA

T1 sequence (Q6UVK1 30-2322): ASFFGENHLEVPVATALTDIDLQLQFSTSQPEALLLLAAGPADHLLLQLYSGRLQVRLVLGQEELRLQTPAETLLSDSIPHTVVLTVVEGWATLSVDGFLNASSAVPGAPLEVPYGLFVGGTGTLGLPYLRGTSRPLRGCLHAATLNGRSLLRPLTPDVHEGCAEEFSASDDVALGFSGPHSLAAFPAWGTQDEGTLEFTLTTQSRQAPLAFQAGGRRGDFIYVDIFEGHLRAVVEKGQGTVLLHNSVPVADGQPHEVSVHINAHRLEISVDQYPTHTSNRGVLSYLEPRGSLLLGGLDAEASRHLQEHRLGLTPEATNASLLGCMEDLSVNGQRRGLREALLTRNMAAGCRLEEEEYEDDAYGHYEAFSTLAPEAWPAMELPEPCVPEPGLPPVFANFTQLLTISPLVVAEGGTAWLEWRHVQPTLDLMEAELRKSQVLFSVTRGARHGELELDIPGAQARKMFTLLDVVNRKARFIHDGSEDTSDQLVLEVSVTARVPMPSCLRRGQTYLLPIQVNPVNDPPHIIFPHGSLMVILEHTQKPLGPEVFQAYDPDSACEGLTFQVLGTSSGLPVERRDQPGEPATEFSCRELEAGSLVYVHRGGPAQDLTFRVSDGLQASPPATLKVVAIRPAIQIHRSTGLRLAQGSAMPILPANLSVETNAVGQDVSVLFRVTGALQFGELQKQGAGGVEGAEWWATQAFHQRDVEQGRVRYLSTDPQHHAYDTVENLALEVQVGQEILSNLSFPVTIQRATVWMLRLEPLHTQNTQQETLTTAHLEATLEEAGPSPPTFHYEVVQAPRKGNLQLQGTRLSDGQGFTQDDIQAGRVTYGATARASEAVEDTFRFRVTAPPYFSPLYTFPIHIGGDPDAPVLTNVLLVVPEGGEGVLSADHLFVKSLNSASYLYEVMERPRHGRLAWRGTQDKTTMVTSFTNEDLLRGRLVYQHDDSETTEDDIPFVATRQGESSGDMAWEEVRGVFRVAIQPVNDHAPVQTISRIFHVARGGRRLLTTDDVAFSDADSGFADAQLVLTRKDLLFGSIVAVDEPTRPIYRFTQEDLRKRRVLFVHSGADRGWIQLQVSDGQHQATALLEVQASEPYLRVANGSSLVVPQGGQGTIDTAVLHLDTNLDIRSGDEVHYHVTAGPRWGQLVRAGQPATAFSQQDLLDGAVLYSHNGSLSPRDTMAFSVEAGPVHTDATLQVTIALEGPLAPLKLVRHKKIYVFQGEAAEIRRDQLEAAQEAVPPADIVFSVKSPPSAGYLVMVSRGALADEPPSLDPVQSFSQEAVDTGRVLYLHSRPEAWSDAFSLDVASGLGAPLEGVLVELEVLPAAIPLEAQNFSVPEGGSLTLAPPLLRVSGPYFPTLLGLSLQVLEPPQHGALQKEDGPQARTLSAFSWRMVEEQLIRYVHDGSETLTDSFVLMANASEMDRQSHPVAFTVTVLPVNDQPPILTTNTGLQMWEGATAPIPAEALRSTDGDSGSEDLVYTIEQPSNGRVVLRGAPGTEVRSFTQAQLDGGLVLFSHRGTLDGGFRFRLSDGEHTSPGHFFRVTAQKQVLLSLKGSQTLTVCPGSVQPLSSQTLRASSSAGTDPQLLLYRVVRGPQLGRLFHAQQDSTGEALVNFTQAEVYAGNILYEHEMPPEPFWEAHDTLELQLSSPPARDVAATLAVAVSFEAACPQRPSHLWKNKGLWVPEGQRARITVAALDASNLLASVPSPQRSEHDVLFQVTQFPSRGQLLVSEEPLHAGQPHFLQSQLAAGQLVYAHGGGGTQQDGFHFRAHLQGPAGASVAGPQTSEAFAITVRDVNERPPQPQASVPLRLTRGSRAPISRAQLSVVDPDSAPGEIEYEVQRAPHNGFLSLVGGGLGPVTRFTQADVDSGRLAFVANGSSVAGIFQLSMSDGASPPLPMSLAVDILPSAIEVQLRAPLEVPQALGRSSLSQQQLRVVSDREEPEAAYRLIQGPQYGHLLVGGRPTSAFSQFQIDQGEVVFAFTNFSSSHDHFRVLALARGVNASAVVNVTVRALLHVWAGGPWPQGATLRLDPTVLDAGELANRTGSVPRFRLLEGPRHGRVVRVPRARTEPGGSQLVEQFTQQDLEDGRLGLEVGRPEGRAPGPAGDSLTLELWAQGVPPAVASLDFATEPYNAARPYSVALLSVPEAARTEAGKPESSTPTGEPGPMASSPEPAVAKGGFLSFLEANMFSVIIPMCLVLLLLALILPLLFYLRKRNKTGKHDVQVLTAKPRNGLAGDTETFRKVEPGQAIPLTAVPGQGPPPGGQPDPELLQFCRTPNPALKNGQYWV

B1: 2+1 IgG Crossfab; VH/VL exchange (LC007/V9), anti-MCSP/anti-huCD3 (bispecific antibody)
chain 1: not shown
chain 2: DIVLTQSPSSLSASLGDRVTISCSASQGIRNYLNWYQQRPDGTVKLLIYYTSSLHSGVPSRFSGSGSGTDYSLTISNLEPEDIATYYCQQYSKLPWTFGGGTKLEIKRTVAAPSVFIFPPSDEQLKSGTASVVCLLNNFYPREAKVQWKVDNALQSGNSQESVTEQDSKDSTYSLSSTLTLSKADYEKHKVYACEVTHQGLSSPVTKSFNRGEC
chain 3: DIQMTQSPSSLSASVGDRVTITCRASQDIRNYLNWYQQKPGKAPKLLIYYTSRLESGVPSRFSGSGSGTDYTLTISSLQPEDFATYYCQQGNTLPWTFGQGTKVEIKSSASTKGPSVFPLAPSSKSTSGGTAALGCLVKDYFPEPVTVSWNSGALTSGVHTFPAVLQSSGLYSLSSVVTVPSSSLGTQTYICNVNHKPSNTKVDKKVEPKSCGGGGSGGGGSEVQLQESGPGLVKPSQSLSLTCSVTGYSITSGYYWNWIRQFPGNKLEWMGYITYDGSNNYNPSLKNRISITRDTSKNQFFLKLNSVTTEDTATYYCADFDYWGQGTTLTVSSASTKGPSVFPLAPSSKSTSGGTAALGCLVKDYFPEPVTVSWNSGALTSGVHTFPAVLQSSGLYSLSSVVTVPSSSLGTQTYICNVNHKPSNTKVDKKVEPKSCDKTHTCPPCPAPEAAGGPSVFLFPPKPKDTLMISRTPEVTCVVVDVSHEDPEVKFNWYVDGVEVHNAKTKPREEQYNSTYRVVSVLTVLHQDWLNGKEYKCKVSNKALGAPIEKTISKAKGQPREPQVCTLPPSRDELTKNQVSLSCAVKGFYPSDIAVEWESNGQPENNYKTTPPVLDSDGSFFLVSKLTVDKSRWQQGNVFSCSVMHEALHNHYTQKSLSLSPGK
chain 4: EVQLVESGGGLVQPGGSLRLSCAASGYSFTGYTMNWVRQAPGKGLEWVALINPYKGVSTYNQKFKDRFTISVDKSKNTAYLQMNSLRAEDTAVYYCARSGYYGDSDWYFDVWGQGTLVTVSSASVAAPSVFIFPPSDEQLKSGTASVVCLLNNFYPREAKVQWKVDNALQSGNSQESVTEQDSKDSTYSLSSTLTLSKADYEKHKVYACEVTHQGLSSPVTKSFNRGEC
EC50 [pM] of T cell-mediated killing (LDH release) of MV-3 cells, human PBMCs, about 24 h [1]: 10 pM | EC50 [pM] of T cell-mediated killing (LDH release) of WM266-4 cells, human PBMCs, about 24 h [1]: 12.4 pM | EC50 of T cell-mediated killing (LDH release) of MV-3 cells, human PBMCs, 21 h [2]: 9.2 pM | EC50 of T cell-mediated killing (LDH release) of WM266-4 cells, human PBMCs, 21 h [2]: 33.1 pM

B2: 2+1 IgG Crossfab; VL/VH exchange (M4-3 ML2/V9), anti-MCSP/anti-huCD3 (bispecific antibody)
chain 1: B1 chain 4
chain 2: not shown
chain 3: not shown
chain 4: QVQLQESGPGLVKPSQTLSLTCTVSGGSITSGYYWNWIRQHPGKGLEWIGYITYDGSNNYNPSLKSRVTISRDTSKNQFSLKLSSVTAADTAVYYCADFDYWGQGTLVTVSSASTKGPSVFPLAPSSKSTSGGTAALGCLVKDYFPEPVTVSWNSGALTSGVHTFPAVLQSSGLYSLSSVVTVPSSSLGTQTYICNVNHKPSNTKVDKKVEPKSCDKTHTCPPCPAPEAAGGPSVFLFPPKPKDTLMISRTPEVTCVVVDVSHEDPEVKFNWYVDGVEVHNAKTKPREEQYNSTYRVVSVLTVLHQDWLNGKEYKCKVSNKALGAPIEKTISKAKGQPREPQVCTLPPSRDELTKNQVSLSCAVKGFYPSDIAVEWESNGQPENNYKTTPPVLDSDGSFFLVSKLTVDKSRWQQGNVFSCSVMHEALHNHYTQKSLSLSPGK
EC50 of T cell-mediated killing (LDH release) of MV-3 cells, human PBMCs, 27 h [2]: ~82.2 pM | EC50 of T cell-mediated killing (LDH release) of WM266-4 cells, human PBMCs, 26 h [2]: 16.8 pM

B3: 2+1 IgG Crossfab, inverted; CL/CH1 exchange (LC007/anti-CD3), anti-MCSP/anti-huCD3 (bispecific antibody)
chain 1: B1 chain 2
chain 2: EVQLQESGPGLVKPSQSLSLTCSVTGYSITSGYYWNWIRQFPGNKLEWMGYITYDGSNNYNPSLKNRISITRDTSKNQFFLKLNSVTTEDTATYYCADFDYWGQGTTLTVSSASTKGPSVFPLAPSSKSTSGGTAALGCLVKDYFPEPVTVSWNSGALTSGVHTFPAVLQSSGLYSLSSVVTVPSSSLGTQTYICNVNHKPSNTKVDKKVEPKSCDKTHTCPPCPAPEAAGGPSVFLFPPKPKDTLMISRTPEVTCVVVDVSHEDPEVKFNWYVDGVEVHNAKTKPREEQYNSTYRVVSVLTVLHQDWLNGKEYKCKVSNKALGAPIEKTISKAKGQPREPQVCTLPPSRDELTKNQVSLSCAVKGFYPSDIAVEWESNGQPENNYKTTPPVLDSDGSFFLVSKLTVDKSRWQQGNVFSCSVMHEALHNHYTQKSLSLSPGK
chain 3: QAVVTQESALTTSPGETVTLTCRSSTGAVTTSNYANWVQEKPDHLFTGLIGGTNKRAPGVPARFSGSLIGDKAALTITGAQTEDEAIYFCALWYSNLWVFGGGTKLTVLSSASTKGPSVFPLAPSSKSTSGGTAALGCLVKDYFPEPVTVSWNSGALTSGVHTFPAVLQSSGLYSLSSVVTVPSSSLGTQTYICNVNHKPSNTKVDKKVEPKSC
chain 4: not shown
EC50 [pM] of T cell-mediated killing (LDH release) of MV-3 cells, human PBMCs, about 24 h [1]: 3 pM | EC50 [pM] of T cell-mediated killing (LDH release) of WM266-4 cells, human PBMCs, about 24 h [1]: 7.1 pM

B4: 2+1 IgG Crossfab; CL/CH1 exchange (LC007/anti-CD3), anti-MCSP/anti-huCD3 (bispecific antibody)
chain 1: B1 chain 2
chain 2: B3 chain 2
chain 3: B3 chain 3
chain 4: not shown
EC50 [pM] of T cell-mediated killing (LDH release) of MV-3 cells, human PBMCs, about 24 h [1]: 11 pM | EC50 [pM] of T cell-mediated killing (LDH release) of WM266-4 cells, human PBMCs, about 24 h [1]: 11.3 pM

B5: 2+1 IgG Crossfab, inverted; CL/CH1 exchange (CH1A1A/V9), anti-CEA/anti-huCD3 (bispecific antibody)
chain 1: QVQLVQSGAEVKKPGASVKVSCKASGYTFTEFGMNWVRQAPGQGLEWMGWINTKTGEATYVEEFKGRVTFTTDTSTSTAYMELRSLRSDDTAVYYCARWDFAYYVEAMDYWGQGTTVTVSSASTKGPSVFPLAPSSKSTSGGTAALGCLVKDYFPEPVTVSWNSGALTSGVHTFPAVLQSSGLYSLSSVVTVPSSSLGTQTYICNVNHKPSNTKVDKKVEPKSCDKTHTCPPCPAPEAAGGPSVFLFPPKPKDTLMISRTPEVTCVVVDVSHEDPEVKFNWYVDGVEVHNAKTKPREEQYNSTYRVVSVLTVLHQDWLNGKEYKCKVSNKALGAPIEKTISKAKGQPREPQVCTLPPSRDELTKNQVSLSCAVKGFYPSDIAVEWESNGQPENNYKTTPPVLDSDGSFFLVSKLTVDKSRWQQGNVFSCSVMHEALHNHYTQKSLSLSPGK
chain 2: DIQMTQSPSSLSASVGDRVTITCKASAAVGTYVAWYQQKPGKAPKLLIYSASYRKRGVPSRFSGSGSGTDFTLTISSLQPEDFATYYCHQYYTYPLFTFGQGTKLEIKRTVAAPSVFIFPPSDEQLKSGTASVVCLLNNFYPREAKVQWKVDNALQSGNSQESVTEQDSKDSTYSLSSTLTLSKADYEKHKVYACEVTHQGLSSPVTKSFNRGEC
chain 3: DIQMTQSPSSLSASVGDRVTITCRASQDIRNYLNWYQQKPGKAPKLLIYYTSRLESGVPSRFSGSGSGTDYTLTISSLQPEDFATYYCQQGNTLPWTFGQGTKVEIKSSASTKGPSVFPLAPSSKSTSGGTAALGCLVKDYFPEPVTVSWNSGALTSGVHTFPAVLQSSGLYSLSSVVTVPSSSLGTQTYICNVNHKPSNTKVDKKVEPKSC
chain 4: not shown
EC50 of T cell-mediated killing (LDH release) of LS-174T cells, human PBMCs, 28 h [3]: 673 pM | EC50 of T cell-mediated killing (LDH release) of MKN-45 cells, human PBMCs, 28 h [3]: 115 pM

B6: 2+1 IgG Crossfab, inverted; CL/CH1 exchange (LC007/V9), anti-MCSP/anti-huCD3 (bispecific antibody)
chain 1: B1 chain 2
chain 2: B3 chain 2
chain 3: B5 chain 3
chain 4: not shown
EC50 [pM] of T cell-mediated killing (LDH release) of MV-3 cells, human PBMCs, about 24 h [1]: 4.1 pM | EC50 [pM] of T cell-mediated killing (LDH release) of WM266-4 cells, human PBMCs, about 24 h [1]: 3.7 pM

B7: 1+1 IgG-Crossfab light chain fusion (CH1A1A/V9), anti-CEA/anti-huCD3 (bispecific antibody)
chain 1: B5 chain 3
chain 2: DIQMTQSPSSLSASVGDRVTITCKASAAVGTYVAWYQQKPGKAPKLLIYSASYRKRGVPSRFSGSGSGTDFTLTISSLQPEDFATYYCHQYYTYPLFTFGQGTKLEIKRTVAAPSVFIFPPSDEQLKSGTASVVCLLNNFYPREAKVQWKVDNALQSGNSQESVTEQDSKDSTYSLSSTLTLSKADYEKHKVYACEVTHQGLSSPVTKSFNRGECGGGGSGGGGSGGGGSGGGGSEVQLVESGGGLVQPGGSLRLSCAASGYSFTGYTMNWVRQAPGKGLEWVALINPYKGVSTYNQKFKDRFTISVDKSKNTAYLQMNSLRAEDTAVYYCARSGYYGDSDWYFDVWGQGTLVTVSSASVAAPSVFIFPPSDEQLKSGTASVVCLLNNFYPREAKVQWKVDNALQSGNSQESVTEQDSKDSTYSLSSTLTLSKADYEKHKVYACEVTHQGLSSPVTKSFNRGEC
chain 3: not shown
chain 4: DKTHTCPPCPAPEAAGGPSVFLFPPKPKDTLMISRTPEVTCVVVDVSHEDPEVKFNWYVDGVEVHNAKTKPREEQYNSTYRVVSVLTVLHQDWLNGKEYKCKVSNKALGAPIEKTISKAKGQPREPQVCTLPPSRDELTKNQVSLSCAVKGFYPSDIAVEWESNGQPENNYKTTPPVLDSDGSFFLVSKLTVDKSRWQQGNVFSCSVMHEALHNHYTQKSLSLSPGK
EC50 of T cell-mediated killing (LDH release) of LS-174T cells, human PBMCs, 28 h [3]: 1560 pM | EC50 of T cell-mediated killing (LDH release) of MC38-huCEA cells, human PBMCs, 24 h [3]: ~3.2 nM | EC50 of T cell-mediated killing (LDH release) of MKN-45 cells, human PBMCs, 28 h [3]: 213 pM
